Reference: the domain aggregation screens of Martell et al. (2025)

Assay: soluble fraction after stress (log2 fold change); higher = more stays soluble; pooled small domains, quantitative proteomics
Conditions: stress: pH 4
Procedure, shortened: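 Values are log2 fold changes, and higher ones mean more of the domain stayed soluble. Each fold change reflects the soluble amount of a domain after acid stress and is taken as a measure of aggregation propensity. The stress was pH 4, applied to pooled custom libraries of small protein domains analysed by high-throughput quantitative proteomics.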

Row | Sequence | soluble fraction (log2)
1 | HMNDTLQEYFEALERLKSNNPINVPKNTKINNDSVALEAGRKRGSIKKSREIFAELIEAINNAS | -0.186
2 | HMNDVEAIDDALKDLHKVSPDLAALVEMKFFGGMTEPEISEILGVSERTVRREWEKARAALLVLLE | -1.18
3 | HMNDVHELPYSSFIEMVERGHVISVTVKHINIEFESTKNENYRTIAPQAMTPPYLELLLKNKDSVKVTFLP | -0.516
4 | HMNDVLVGAIPESASGSRLDKVMPSVFPPYSRSQLQVWLKQGRILMGNGIPSPRLIVSGGEVLSLVVPELP | -0.244
5 | HMNEDFSEIIAAVKKFAVDNLSLSTLSDEELEEQIKTITDNMIGNRYVSIKNRVDIAQQVFSSIR | -0.435
6 | HMNEMEFAQRLRQFRKAKNLTQQELADRLGVSNKSVSRWESGSYPDVGTLVALARALGVTVDELLDPKA | 0.149
7 | HMNEMEWVAKLIDQLPERERMILQLREIEQYEFDQIASLMEIPEGTVRVYLSRIRKKIKKQFIEIQSH | -0.405
8 | HMNENFPYRLKEMVVVQSRTWPGINKPGGVGQVMKINPEAGTVNVKYVLGGSEKNIELKYVTSNDLNSK | 0.063
9 | HMNENYNLSKREKEVLDLLVNGKSYKVIATELAISYETVHSHIKKIYHKLHVSSIGEAVSKTIKQKIL | -0.561
10 | HMNEPITIALREAEEAANKILNEGVHSVELSPQNGYVRRLQHELIARYGLTSASRGSDPSRRVSVGAN | -0.273
11 | HMNEQKVSSLLTPRQLAFIDEYLIDFNGAQAAIRAGYSHKTAGPQAARLLVNVNISRMIAERIEARNK | -1.22
12 | HMNEQVAVVSGSQVNVRSGPGTTSAVVGQVSKGDNLPVLNQSGDWYQIKLPGGNAGWVAGWLVSLRPTT | 0.237
13 | HMNESPVLAVLTPTERKVASLVAEGLTNQAIAARMILAEGTVKNHVSTLLHKLQAPDRTALALTLYKAFQ | 0.165
14 | HMNETRVDQAADLLLALLEKEPKSAAEILDEFEQAGFSKSGLYRAKDALGVVSIRKEGRWVWSLPHSLD | -0.778
15 | HMNEYIVSAEQEGMRLDVFLTEQMEGSRSYIQSLIKGGHVTVGDKVGKANLRLTPDTVIHVEIPEPE | -0.166
16 | HMNEYLPEAVQKLLEVMEYDIPYTSNELMERLGLKAKEGFRRNYLHPAMEMKLIQMTIPDKPNSRNQRYLR | -0.248
17 | HMNFHLEHHIAELLYRSIRGELSDFERQELNQWRSDSPMHETLFMRLQDDEYIDEELGVFIK | -1.89
18 | HMNFKNMIDSLSGILFKKDPSAAIIDIGGVRLKVFITVGSYEQLPAKGEQVEILTYLHVKEDILNLYG | -0.819
19 | HMNFMDGFQSFFQESGAMNRPMTADVVSYRLPDGTVQQGNSTMRGLMDQYLKSIGQSPTTGVP | -0.176
20 | HMNFRESVLAVFENSKQKYLDFDEIAKRLGLTRGFDRQALASMLNELTRNDEIVFTKRNKYTLPEN | -0.774
21 | HMNGAVAEQARKQLMAALKASEFIAEEKLDEWLDALALPEDKRTAIVDAVDELDYEEAISELEN | 0.0531
22 | HMNGDYFEYRYAVNGSRSTPPSLSKTSRNPSGWSTTVPTVGNLQYLWFTVAKINGETNSLIQNWSTPARQT | 0.143
23 | HMNGEAQTMYVTARTLNVRKGPGTSYAKAGTLSRGTAVQVVGFSGNWAKLSNGYYVSTSYLAKI | 0.0208
24 | HMNGKWKLRIIKELLHSNIRFGQILKNIPDISPKVLSQQLKEMEEDGIIERIVISEMPPNVEYVLTDMGE | -0.458
25 | HMNGLNISYRMDGENVVETIVFPDATMIRTIAPNGVMTIKTIEDGSVSTSELKADYKLYKKIYESQY | -0.401

Row | Sequence | soluble fraction (log2)
26 | HMNGSVLVTGGSVWIRAGASKETDGLGIVHKGDVLKRSGSDASGWRGVVYEGQNAFISAKYSSI | 0.424
27 | HMNGTEAIRRYIDQFASKHATTPRMLKLNERKQLIQELKNNGLLEIKKAVETVAQHLGISRASAYLYVKE | ≥ 0.43
28 | HMNGVPDMSPVPEGARNSTLHAWAFGRLKNHPDNETGIREDLFRRGHASGLQDAELDQIWKSIKRTL | ≥ 0.43
29 | HMNGVSNETLIQKSALYEELNQPDLALKMINTALKKDSVNIEILHRLVTLLMSQEKNEEAILYNQKIIDH | -0.0993
30 | HMNHSITLTERKNLLITGVKKIENFDKEEFLIETTMGFLVVKGDGLELIKLDTISGNVSIKGIVNGFTYID | 0.0772
31 | HMNIAAVIGQTGVLQDDLKAGEQGTVKADNKLWTAVLAEGEEAVKKEERVDIVAVEGVKLIVRRNI | -1.14
32 | HMNIDEIFLTKNEIYFSFEYQKKSQLDRYSKIISLDHRIDKNTAYAYANKKQFLNFINLNIDYKIIDNSF | -1
33 | HMNIDEIIGKKAVVIESIDNLQGTGKVRYQGMEWTARAEEENDRIEKDAEVEIIAVKGVKLIVKMK | -0.19
34 | HMNIDNTWQPSEDVVEILTRSGINEDFINELIPEFIVYWTERPGTLVSYNSKFIEHVRLKWAQHSAEI | -1.04
35 | HMNIDVAAEKQQLGPNADQIVKGTVTWMQGLVAKGIWSETDFEEGKIFTATADGINAINKIRRYYGEQT | -0.439
36 | HMNIEDFKDKVKELKQYTYQELVEDVKLKTDRADVILPASKIYLEAMQQAKVDSIIVPKVGLAEGVAR | 0.149
37 | HMNIEEQVVAEVLVKDFMKQLTPRDIHILELRKNGYTYQEIAGQLGYHTHSAVKKRVDRLAEQWLAYTQGH | -0.739
38 | HMNIFAHQIGKLRTERHLSQTDVAKRLYVSRQAVSKWENGDAEPSLDNLIALAKLFNVSLDNLITGQ | 0.138
39 | HMNIGVEQIEQMERGALITLWQELIDKPLPRHMSIVFLRQVLAFEVQSKQNGGLPRGFITLLNKQAD | -0.868
40 | HMNIKITKSKNSEHYSIIYNTKINGKRTSKIYENIGNFEKLKLRAGEQEPIEWLKNYVSELNKKQKEDT | 0.22
41 | HMNIKYDFPTNSPLEMMRNLFDSNSQIINDLKDGFAMANSLNEQGLANFFAERIDKHQFWSWQLSASL | 0.177
42 | HMNILDPTVMKNILDKNHEEFIAIYESAPLGQKTIINSMVFDKRLNGENVDANILMYLQNKTNIDYINIEP | -1.47
43 | HMNILNYIIENENQEVRVDKFLSDTIEDMSRSSVASIIEDGGLLVNDKLQNKKYKLKIGDKVQFTVPDPV | -0.121
44 | HMNILVAISDTGEIWINKRRVDARAVQANIERLHAENPQGTVVIQADKQATTETLIKVMDASRAAGVFDVS | -0.759
45 | HMNINLDINTYTVKELEKLLKLEVPYSDNNVFEKKNLMVKMIQTSTIAETKKEELYIFLDNIYNRLTNNLE | -0.942
46 | HMNISLGALVTITDQKGRSHTVTLESGKQFFTNHGSINHDEIIKAGEGGVVASSSGMLYTIFTP | -0.551
47 | HMNISRESLIGQILATLNKNPEEGFNYKQIAKRLNITDSPGRQMISDLLRELSKHGSLQEISHGKYKIKV | 0.215
48 | HMNITHEINVKSKSKIDFLENNKNLAQFFLTKNPNQFNYNLVFSDKSELNIIKEKIESHKDIEDIDIRYG | -1.11
49 | HMNIVINVDTPTFEQMKATYQAPGTLPAGASFHAKLKGVTVTGYTKSHKVMFQGALANQEAARWQ | ≥ 0.43
50 | HMNIYFNIEDAVANAVVENGKMSAAIYEKNVDTGEVAKLAEVSMPVMGGNINITKTLLTKALISQLP | -0.713

Row | Sequence | soluble fraction (log2)
51 | HMNKAYLTVADMKKDKSLKNGDVVRTLGYYGYNDGDGAVYQIKDSHPEDYHIRLDNGLDAEQINY | 0.174
52 | HMNKEHINLDSSKFLSLLNKTKISMSNDETRHYLNGIYIHPTVSNKSSYLTGVATDSHRLSSSSIPVD | -0.311
53 | HMNKMIIELGEKLKALRTENHLRQDQVARLVNVEKSSISMYETGMRQPSYTTLVRLADVFNVTTDYLLGRK | 0.307
54 | HMNKPTSMYKLRLLLKHYHAGASKRWMADVLDISRSTLNVYLARIESLNLAFEEWEALSDLEVSRLLINP | -0.852
55 | HMNKVAQFYRELVSTLSERLRNGERDIDALVEQARVRISQSGELTQSEIENVIRAVRRDLEEFALSYEE | -1.73
56 | HMNLAISAYQQLKSDIIRGVYAPGEKLLMSRLKVRYGLGIGPMREALSQLVSEHLVTAASQRGYRVAGM | 0.129
57 | HMNLAPLLTEYVQINFRRASEMKTYLEQANLISERGFLLADDQTNILMVRETGASIEEIRRTLNRF | -1.61
58 | HMNLFKAPMPGLIRTIVVAEGQEVKKGDVILILEAMKMENALKSPADLVVKSIKVQQGQAVEKNQLLIEF | -0.14
59 | HMNLGNLLKIYRKNSLLTQQQVADALNINRTTYTYYETGKTEPSIDTLHKLIKIFGITYDDLL | -0.337
60 | HMNLKDINLNVRHYKIIDFVREHGYASIETLTRQFGVSAQTVRRDIIYLDNQAVLKRHHGGVGTLPG | -0.723
61 | HMNLPTSGVDALTPAERRVARMAGDGQSNREIAQTLFVTRKTVEIHLTSVYRKLGIASRAELSARL | -0.59
62 | HMNLQGIISQKAIVTQTIEPYETGVAKLNGEEWTAMSKDETRIEAGKLVEVVAIEGVKLIVKEVS | -0.295
63 | HMNLVELKHAEEFNTLIIQDIGGRMKPAHTLASELVRKVFHNDDFNGIDPRKVFLSIIENSKVWFNVPFI | -0.361
64 | HMNLYENLATHVKNAIRQGVYQPGDRLPSVRRLSEQHRVSQNTAVSAYRLLESHGWLEARPQSGFFARHP | 0.297
65 | HMNLYERFPIHELWKETFNETLDEEEHITFITSEFKPENIVLGQGFIAAPSKKDAVDWLKVIRTVLIFYDS | -1.61
66 | HMNMANFARIRLILELHDRGMSQDEISRSRHMSRSTITTVLRTARKKGITYAGIRKLDDAALQKLFFPDR | 0.22
67 | HMNMDLGHSISKLRTDANLTQEKFAQILNVSRQTVQKWEYGEALPDIHNIIKIAKFFNISLDALVLRS | -0.222
68 | HMNMIGDVIRNLRTVSSMTQTELGQRMGVIKQTISNWEKNISTPSIDAIVKLSSIFNVPTDYLL | -0.178
69 | HMNMMESNLFAVYDNDDIVKTLRQGAMEIDSLIRLMGKSSAEVLEKLTTMELQGIITRSGNIIALNN | -1.38
70 | HMNMNDIKFGKYLKRVRKKYNFSKEYVANILKVKESLVSDWESGRLTLNDEYMEKLSLFYGVNLYKK | -0.123
71 | HMNMPDVTVEWVKEQQAKFGLTDSDLAKSVNIDNANLARIFNQRGLTKIHKALFYYFFRAYGLQ | -1.1
72 | HMNMRVLSEQPNKKSYQDGNLRLKVFGASFKKSDILNEALNQARVEETGLQIPKLLEVKQIDGQWTIVTE | -0.393
73 | HMNMVSGHLQVKKGYYYAVLSFYDSKNKRHVKYISTGLPEKGNKRKAEAELVKIRNAFEPPAE | -0.0995
74 | HMNNESEGAIMLRQYSSLSAYLTKYNIDVNSKKAQQYASSLKLAQEKGSAEGQKYLSSISSELDD | 0.00542
75 | HMNNIIEQIKADIKKLEEKLDKSSENALNKLEKDYSSLSTESKKKLDDAGYGARIKALRVKFAALSTQ | ≥ 0.43
